We go through seven molecules from PMC12815460, “A high-resolution analysis of arrestin2 interactions responsible for CCR5 endocytosis” (eLife, 2026).

In one assay the target is AP2β2 (Homo sapiens) (UniProt P63010). The assay can be described thus: EPR. Conditions: cited from earlier work.
The target of assay [1] is arrestin2^1-418 (full-length human arrestin2) (human) (UniProt P49407).
For assay [2], the target named is CCR5pp3 phosphopeptide C-terminal phosphopeptide (Homo sapiens) (UniProt P51681). Conditions: cited from earlier work.
Chain of CCR5pp3 phosphopeptide C-terminal phosphopeptide (Homo sapiens) (P51681 332-352): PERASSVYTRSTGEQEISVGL
For the next assay, the target named is T1, AP2β2 (Homo sapiens, UniProt P63010).
T1 chain: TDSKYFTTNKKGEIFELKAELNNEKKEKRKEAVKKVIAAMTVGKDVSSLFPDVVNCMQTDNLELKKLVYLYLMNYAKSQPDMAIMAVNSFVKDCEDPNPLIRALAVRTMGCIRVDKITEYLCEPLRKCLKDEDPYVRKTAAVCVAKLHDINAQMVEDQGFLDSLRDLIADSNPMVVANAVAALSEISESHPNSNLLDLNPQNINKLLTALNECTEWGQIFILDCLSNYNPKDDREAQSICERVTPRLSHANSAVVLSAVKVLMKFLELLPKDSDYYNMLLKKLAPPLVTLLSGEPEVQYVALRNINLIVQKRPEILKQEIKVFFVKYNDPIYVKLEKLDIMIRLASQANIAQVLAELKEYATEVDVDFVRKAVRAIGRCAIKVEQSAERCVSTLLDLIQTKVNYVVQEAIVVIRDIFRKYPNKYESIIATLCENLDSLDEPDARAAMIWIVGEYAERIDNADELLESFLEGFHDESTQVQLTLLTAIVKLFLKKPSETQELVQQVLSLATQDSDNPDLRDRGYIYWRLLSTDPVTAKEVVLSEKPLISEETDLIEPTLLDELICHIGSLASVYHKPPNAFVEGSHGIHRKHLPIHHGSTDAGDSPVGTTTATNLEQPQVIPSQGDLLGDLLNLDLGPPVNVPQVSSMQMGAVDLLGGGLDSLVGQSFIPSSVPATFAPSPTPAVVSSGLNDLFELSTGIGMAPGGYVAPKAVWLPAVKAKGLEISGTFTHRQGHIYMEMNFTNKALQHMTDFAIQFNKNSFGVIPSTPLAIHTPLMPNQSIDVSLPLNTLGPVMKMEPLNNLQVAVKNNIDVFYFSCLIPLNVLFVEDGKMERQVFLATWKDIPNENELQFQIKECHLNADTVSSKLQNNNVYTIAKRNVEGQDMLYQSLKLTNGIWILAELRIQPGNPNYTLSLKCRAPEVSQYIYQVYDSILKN
The assay can be described thus: SEC.

In assay [3] the target is T2, clathrin-N (clathrin heavy chain 1 N-terminal domain, residues 1–364) (UniProt Q00610 1-364).
T2 construct: the construct used here is 1–364; Tag removed with 3C protease; pETM33 may add GST besides the His tag (surmise); Used 15N,2H-labelled or unlabelled; also called clathrin heavy chain N-terminal domain; CLTC Clathrin propeller; source: E. coli BL21 (DE3), purified (Ni-NTA, reverse IMAC, gel filtration)
T2 sequence (looked up): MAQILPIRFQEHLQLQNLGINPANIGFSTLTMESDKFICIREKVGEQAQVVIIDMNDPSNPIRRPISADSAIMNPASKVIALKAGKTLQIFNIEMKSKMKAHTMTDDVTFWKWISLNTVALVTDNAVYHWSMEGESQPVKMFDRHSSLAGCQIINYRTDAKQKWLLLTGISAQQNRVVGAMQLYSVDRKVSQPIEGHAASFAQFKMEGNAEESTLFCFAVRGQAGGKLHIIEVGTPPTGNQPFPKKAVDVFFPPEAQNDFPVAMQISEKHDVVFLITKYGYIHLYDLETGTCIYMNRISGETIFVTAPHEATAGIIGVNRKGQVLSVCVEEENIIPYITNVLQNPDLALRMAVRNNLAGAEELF
The assay can be described thus: NMR titration; 50 μM 15N,2H-labelled clathrin-N observed (1H-15N HSQC-TROSY, 900 MHz), unlabelled arrestin2 construct added up to equimolar, no phosphopeptide; 20 mM HEPES, 150 mM NaCl, pH 7.4, 303 K. Conditions: both partners purified.

The target of assay [4] is T2, clathrin-N (clathrin heavy chain 1 …). The assay can be described thus: NMR titration; 50 μM Ile-δ1-13CH3,2H-labelled arrestin2^1-393 observed (1H-13C HMQC), unlabelled clathrin-N up to 600 μM; I377 13C shifts fitted with a 1:1 isotherm; apparent; 20 mM HEPES, 150 mM NaCl, pH 7.4, 303 K. To be noted: both partners purified.

“arrestin β20 peptide 383-402 (from UniProt P49407)”: in the assay with AP2β2 (Homo sapiens), the Kd is 9 µM.

For the molecule “AP2β2^701-937 (C-terminal domain of the β2 subunit of the AP2 complex, residues 701–937) (from UniProt P63010 701-937) (domain or fragment)”, in assay [1], the protection of CCR5pp6-activated arrestin2^1-418 from trypsin: proteolysis midpoint at 1-, 2- and 5-molar equivalents of AP2β2^701-937 (10 to 30 min) worked out at 30 min.

Regarding arrestin2 (from UniProt P49407), the Kd in assay [2] is 200 µM.

B1: arrestin2 (protein)
chain: MGDKGTRVFKKASPNGKLTVYLGKRDFVDHIDLVDPVDGVVLVDPEYLKERRVYVTLTCAFRYGREDLDVLGLTFRKDLFVANVQSFPPAPEDKKPLTRLQERLIKKLGEHAYPFTFEIPPNLPCSVTLQPGPEDTGKACGVDYEVKAFCAENLEEKIHKRNSVRLVIRKVQYAPERPGPQPTAETTRQFLMSDKPLHLEASLDKEIYYHGEPISVNVHVTNNTNKTVKKIKISVRQYADICLFNTAQYKCPVAMEEADDTVAPSSTFCKVYTLTPFLANNREKRGLALDGKLKHEDTNLASSTLLREGANREILGIIVSYKVKVKLVVSRGGLLGDLASSDVAVELPFTLMHPKPKEEPPHREVPENETPVDTNLIELDTNDDDIVFEDFARQRLKGMKDDKEEEEDGTGSPQLNNR
modifications: CCR5pp4 phosphopeptide
Consider B1, for which the Kd with AP2β2 amounted to 44 µM.

B2: arrestin2 (protein)
chain: B1 chain
modifications: CCR5pp6 phosphopeptide
Turning to B2, in the assay with AP2β2, the Kd worked out at 9 µM.

B3: arrestin2 (protein)
chain: B1 chain
modifications: CCR5pp3 phosphopeptide
The molecule B3 showed a Kd with AP2β2 of 40 µM.

B4: arrestin2^1-393 (truncated human arrestin2, residues 1–393) (domain or fragment)
chain: MGDKGTRVFKKASPNGKLTVYLGKRDFVDHIDLVDPVDGVVLVDPEYLKERRVYVTLTCAFRYGREDLDVLGLTFRKDLFVANVQSFPPAPEDKKPLTRLQERLIKKLGEHAYPFTFEIPPNLPCSVTLQPGPEDTGKACGVDYEVKAFLAENLEEKIHKRNSVRLVIRKVQYAPERPGPQPTAETTRQFLMSDKPLHLEASLDKEIYYHGEPISVNVHVTNNTNKTVKKIKISVRQYADIVLFNTAQYKVPVAMEEADDTVAPSSTFSKVYTLTPFLANNREKRGLALDGKLKHEDTNLASSTLLREGANREILGIIVSYKVKVKLVVSRGGLLGDLASSDVAVELPFTLMHPKPKEEPPHREVPENETPVDTNLIELDTNDDDIVFEDFAR
modifications: Cys replacements inferred from the printed arrestin2-ΔCBL sequence (L150, V242, V251, S269), assumed to share the parent construct of Isaikina et al. 2023; not stated in this text for 1-393. Isotope …
For B4, the “stoichiometry N” value in assay [3] was 1. Further, the Kd in assay [4] worked out at 104 ± 9 µM.

The stoichiometry N is a count of units in the complex or per binding partner.
